Laboratory results reported in paper PMC10901488 (Chemical Science, 2024).

Experiments:
Solubilization test = format: physicochemical; conditions: model peptides before tagging, or product after reaction with Mal-(EK)3
[1] = due to its hydrophobicity; cited from earlier work

Row | Substance | solubility (in words) (Solubilization test) | solubility [1]
1 | 1: C-terminal segment of IL-2 (residue 105–133) (CEYADETATIVEFLNRWITFCQSIISTLT; UniProt P60568 125-153, looked up, fragment) [compound 1] | poor solubility | 
2 | insulin A chain: insulin A chain |  | poor solubility
